Measurements from US20070122422A1, “Sodium-independent small neutral amino acid transporter transporting L- and D- amino acids” (Japan Science and Technology Corporation, priority 2000, published 2007).

Tests used:
[1] = target: T1, LAT1 of rat (co-expressed with 4F2hc of rat) (Rattus norvegicus, UniProt Q63016, Q506C); test: Release of injected 14C-leucine from oocytes co-expressing LAT1 and 4F2hc of rat; assay type: cell-based; conditions: leucine 100 μM added or not added outside the cells
T1 construct: expressed in transfected cells; host or cells: oocytes injected with cRNA (per Kanai et al., J. Biol. Chem. 273:23629)
T1 sequence (Q63016 whole entry Q506C): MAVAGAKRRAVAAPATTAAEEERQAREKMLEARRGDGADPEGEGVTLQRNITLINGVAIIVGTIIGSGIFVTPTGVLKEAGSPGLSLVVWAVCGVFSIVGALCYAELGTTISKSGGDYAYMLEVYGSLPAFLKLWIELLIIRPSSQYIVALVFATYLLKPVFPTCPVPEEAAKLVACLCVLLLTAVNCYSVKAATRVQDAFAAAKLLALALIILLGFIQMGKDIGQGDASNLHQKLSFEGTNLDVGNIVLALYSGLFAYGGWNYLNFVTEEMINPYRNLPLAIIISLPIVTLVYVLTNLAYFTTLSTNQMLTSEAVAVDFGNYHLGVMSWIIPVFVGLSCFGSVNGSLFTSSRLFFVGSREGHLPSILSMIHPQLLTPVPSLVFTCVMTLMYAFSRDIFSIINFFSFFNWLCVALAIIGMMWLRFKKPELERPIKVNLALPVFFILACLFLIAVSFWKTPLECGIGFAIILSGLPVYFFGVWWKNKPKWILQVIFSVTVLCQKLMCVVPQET
T1 sequence (Q794F9 whole entry partner): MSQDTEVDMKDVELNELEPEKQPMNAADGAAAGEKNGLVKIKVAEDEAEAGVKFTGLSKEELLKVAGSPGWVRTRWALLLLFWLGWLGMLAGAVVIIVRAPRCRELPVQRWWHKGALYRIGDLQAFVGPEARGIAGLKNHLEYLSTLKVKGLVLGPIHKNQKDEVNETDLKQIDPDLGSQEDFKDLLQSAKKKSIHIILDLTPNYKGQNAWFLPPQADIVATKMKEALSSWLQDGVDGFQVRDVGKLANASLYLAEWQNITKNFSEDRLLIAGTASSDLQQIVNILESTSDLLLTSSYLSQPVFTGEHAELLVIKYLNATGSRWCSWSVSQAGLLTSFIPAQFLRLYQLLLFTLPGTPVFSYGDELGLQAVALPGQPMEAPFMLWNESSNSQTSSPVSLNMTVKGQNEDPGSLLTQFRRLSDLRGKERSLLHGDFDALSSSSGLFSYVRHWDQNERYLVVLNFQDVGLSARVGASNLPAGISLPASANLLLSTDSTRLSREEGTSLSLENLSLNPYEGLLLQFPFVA
Method: Further, ^14C-leucine was similarly injected into oocytes into which LAT1 gene cRNA and 4F2hc gene cRNA of rat were injected together (Kanai et al., J. Biol. Chem., volume 273, page 23629, […]), washed with an ice-cooled Na^+-free uptake solution containing no leucine and transferred to a Na^+-free uptake solution to which leucine (100 μM) was added or not added at room temperature (18° C.-22° C.) whereupon the amount of ^14C-leucine released outside the cells was measured.
In the drawing, 0 is the case where, in the release of ^14C-leucine in the oocytes into which water is injected as a control instead of cRNA of rat LAT1 gene and cRNA of rat 4F2hc gene, a Na^+-free uptake solution to which no leucine is added is used; ● is the case where, in the release of ^14C-leucine in the oocytes into which water is injected as a control instead of cRNA of rat LAT1 gene and cRNA of rat 4F2hc gene, a Na^+-free uptake solution to which leucine is added is used; ● is the case where, in the release of ^14C-leucine in the oocytes into which cRNA of rat LAT1 gene and cRNA of rat 4F2hc gene are injected, a Na^+-free uptake solution to which no leucine is added is used; and ▪ is the case where, in the release of ^14C-leucine in the oocytes into which cRNA of rat LAT1 gene and cRNA of rat 4F2hc gene are injected, a Na^+-free uptake solution to which leucine is added is used.

[2] = target: T2, asc-1 of mouse (co-expressed with 4F2hc of mouse) (Mus musculus, UniProt P63115); test: Incorporation of radiolabeled amino acids and analogs by oocytes co-expressing asc-1 and 4F2hc; assay type: cell-based; conditions: summary statement; asc-1 co-existing with 4F2hc
T2 construct: expressed in transfected cells; host or cells: Xenopus oocytes injected with cRNA
T2 sequence (P63115 1-530): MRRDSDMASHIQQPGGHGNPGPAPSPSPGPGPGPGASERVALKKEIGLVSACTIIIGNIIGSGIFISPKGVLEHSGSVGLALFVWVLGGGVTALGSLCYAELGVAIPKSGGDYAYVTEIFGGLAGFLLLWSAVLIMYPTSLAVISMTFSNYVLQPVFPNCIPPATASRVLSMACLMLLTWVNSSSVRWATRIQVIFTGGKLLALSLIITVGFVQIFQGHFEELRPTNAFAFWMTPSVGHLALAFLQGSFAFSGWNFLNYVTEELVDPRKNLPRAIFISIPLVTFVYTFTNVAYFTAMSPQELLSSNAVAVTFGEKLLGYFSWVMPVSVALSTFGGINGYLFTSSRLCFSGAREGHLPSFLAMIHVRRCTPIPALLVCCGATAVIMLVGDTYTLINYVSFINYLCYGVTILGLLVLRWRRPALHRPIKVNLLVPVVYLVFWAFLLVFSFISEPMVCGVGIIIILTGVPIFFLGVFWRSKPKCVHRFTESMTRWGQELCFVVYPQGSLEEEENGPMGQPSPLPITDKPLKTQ
T2 sequence (P10852 1-526 partner): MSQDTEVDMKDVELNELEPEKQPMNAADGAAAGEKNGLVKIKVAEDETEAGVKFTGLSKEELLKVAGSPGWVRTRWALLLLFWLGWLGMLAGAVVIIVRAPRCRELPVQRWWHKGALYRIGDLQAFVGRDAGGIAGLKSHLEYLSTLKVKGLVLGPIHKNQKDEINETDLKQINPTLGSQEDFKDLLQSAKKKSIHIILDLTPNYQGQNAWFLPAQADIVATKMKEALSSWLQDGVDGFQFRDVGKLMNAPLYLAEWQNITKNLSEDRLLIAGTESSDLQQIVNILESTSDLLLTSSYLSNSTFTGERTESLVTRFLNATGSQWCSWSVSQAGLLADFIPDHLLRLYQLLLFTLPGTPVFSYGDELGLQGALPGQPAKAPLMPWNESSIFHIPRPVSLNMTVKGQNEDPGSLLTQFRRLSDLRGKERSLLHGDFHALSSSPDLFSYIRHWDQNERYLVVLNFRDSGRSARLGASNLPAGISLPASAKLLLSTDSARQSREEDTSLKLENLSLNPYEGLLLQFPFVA
Method: Incorporation of alanine when asc-1 gene cRNA of mouse was solely expressed in oocytes of Xenopus and when asc-1 gene cRNA of mouse and 4F2hc gene cRNA of mouse were expressed in oocytes of Xenopus together was compared.
(§1) Into oocytes were injected 12 ng of asc-1 gene cRNA of mouse, 13 ng of 4F2hc gene cRNA of mouse or 12 ng asc-1 gene cRNA of mouse/13 ng of 4F2hc gene cRNA of mouse to express followed by incubating for 3 days. […] Thus, the oocytes were allowed to stand for 30 minutes in a Na^+-free uptake solution [100 mM choline chloride, 2 mM potassium chloride, 1.8 mM calcium chloride, 1 mM magnesium chloride, 5 mM HEPES; pH 7.4] containing ^14C-alanine (100 μM) as a substrate and the rate of the substrate incorporated into the cells was measured by way of counting the radioactivity incorporated thereinto.
In an experiment of incorporation of alanine by oocytes into which both asc-1 gene cRNA and 4F2hc gene cRNA of mouse were injected together, influence of the salt added to the medium was investigated.
The experiment of incorporation of alanine was carried out in accordance with the method mentioned in the above Example 2(1) using oocytes into which both asc-1 gene cRNA and 4F2hc gene cRNA of mouse were injected together. When the influence of sodium ion was checked however, a standard uptake solution (where 100 mM choline chloride was substituted with 100 mM sodium chloride) was used in place of the Na^+-free uptake solution as the uptake solution. When the influence of chlorine ion was checked, a gluconic acid uptake solution (where 100 mM sodium chloride was substituted with 100 mM sodium gluconate) was used in place of the standard uptake solution.
Incorporation by asc-1 was investigated using various amino acids and analogs thereof as substrates. Experiment for incorporation of various amino acids and analogs thereof was carried out according to the method mentioned in the above Example 2(1) using oocytes into which asc-1 gene cRNA of mouse and 4F2hc gene cRNA of mouse were injected together. With regard to the substrates however, various compounds labeled with radioactivity were used in place of ^14C-alanine.
Influence of pH was checked in an experiment for incorporation of alanine by oocytes into which both asc-1 gene cRNA and 4F2hc gene cRNA of mouse were injected together. With regard to an experiment for incorporation of alanine, the method according to that mentioned in the above Example 2 (1) was carried out using oocytes into which both asc-1 gene cRNA of mouse and 4F2hc gene cRNA of mouse were injected together.

[3] = target: T2, asc-1 of mouse (co-expressed with 4F2hc of mouse); test: Michaelis-Menten kinetic test of substrate incorporation by Xenopus oocytes co-expressing asc-1 and 4F2hc; assay type: cell-based; conditions: ratio to the Vmax value for alanine (defined as 1.00)
Method: as §1
A Michaelis-Menten kinetic test was carried out for a sodium-independent small neutral amino acid transporter asc-1 which transports L- and D-amino acids. By checking the changes in the rate of incorporation of alanine due to the difference in concentration of the alanine substrate, the Michaelis-Menten kinetic test of asc-1 was carried out.
An experiment for the incorporation of alanine was carried out according to the method mentioned in the above Example 2(1) using the oocytes into which both asc-1 gene cRNA of mouse and 4F2hc gene cRNA of mouse were injected.
With regard to amino acids other than alanine which were used as substrates, a Michaelis-Menten kinetic was carried out as well in the same manner whereupon Km values and Vmax values were calculated. Each Vmax value in Table 1 was shown in terms of the ratio when the Vmax value of alanine was defined as 1.00.

[4] = substrate: CC(C)[C@H](N)C(=O)O; test: as above; assay type: cell-based; conditions: other: oocytes with mouse asc-1 and 4F2hc cRNA; Na+-free uptake solution; pH 7.4
[5] = substrate: N[C@@H](CO)C(=O)O; test: as above; assay type: cell-based; conditions: other: oocytes with mouse asc-1 and 4F2hc cRNA; Na+-free uptake solution; pH 7.4
[6] = substrate: CC(C)C[C@H](N)C(=O)O; test: as above; assay type: cell-based; conditions: other: oocytes with mouse asc-1 and 4F2hc cRNA; Na+-free uptake solution; pH 7.4
[7] = substrate: N[C@@H](CS)C(=O)O; test: as above; assay type: cell-based; conditions: other: oocytes with mouse asc-1 and 4F2hc cRNA; Na+-free uptake solution; pH 7.4
[8] = substrate: N[C@@H](Cc1ccccc1)C(=O)O; test: as above; assay type: cell-based; conditions: other: oocytes with mouse asc-1 and 4F2hc cRNA; Na+-free uptake solution; pH 7.4
[9] = substrate: CC(C)(N)C(=O)O; test: as above; assay type: cell-based; conditions: other: oocytes with mouse asc-1 and 4F2hc cRNA; Na+-free uptake solution; pH 7.4
[10] = substrate: CC[C@H](C)[C@H](N)C(=O)O; test: as above; assay type: cell-based; conditions: other: oocytes with mouse asc-1 and 4F2hc cRNA; Na+-free uptake solution; pH 7.4
[11] = substrate: N[C@@H](Cc1c[nH]cn1)C(=O)O; test: as above; assay type: cell-based; conditions: other: oocytes with mouse asc-1 and 4F2hc cRNA; Na+-free uptake solution; pH 7.4
[12] = substrate: N[C@H](CO)C(=O)O; test: as above; assay type: cell-based; conditions: other: oocytes with mouse asc-1 and 4F2hc cRNA; Na+-free uptake solution; pH 7.4
[13] = substrate: C[C@H](N)C(=O)O; test: cells, lysate or membranes; conditions: other: oocytes with mouse asc-1 and 4F2hc cRNA; Na+-free uptake solution; pH 7.4
[14] = substrate: CSCC[C@H](N)C(=O)O; test: cells, lysate or membranes; conditions: other: oocytes with mouse asc-1 and 4F2hc cRNA; Na+-free uptake solution; pH 7.4
[15] = substrate: NCCC(=O)O; test: cells, lysate or membranes; conditions: other: oocytes with mouse asc-1 and 4F2hc cRNA; Na+-free uptake solution; pH 7.4
[16] = substrate: C[C@@H](N)C(=O)O; test: cells, lysate or membranes; conditions: other: oocytes with mouse asc-1 and 4F2hc cRNA; Na+-free uptake solution; pH 7.4
[17] = substrate: C[C@@H](O)[C@H](N)C(=O)O; test: cells, lysate or membranes; conditions: other: oocytes with mouse asc-1 and 4F2hc cRNA; Na+-free uptake solution; pH 7.4
[18] = substrate: NCC(=O)O; test: cells, lysate or membranes; conditions: other: oocytes with mouse asc-1 and 4F2hc cRNA; Na+-free uptake solution; pH 7.4

CC(C)C[C@H](N)C(=O)O [L-Leucine]
release of 14C-leucine [1]: observed only when leucine was added
transport by asc-1 (affinity in words) [2]: lowly affinitive
Vmax [3]: 0.58

B1: asc-1 of mouse (co-expressed with 4F2hc of mouse) (Mus musculus) (protein)
chain: T2 sequence (P63115 1-530)
notes: expressed in transfected cells; host or cells: Xenopus oocytes injected with cRNA
Km [4]: 112 µM
Km [5]: 11.3 µM
Km [6]: 245 µM
Km [7]: 23.7 µM
Km [8]: 464 µM
Km [9]: 22.7 µM
Km [10]: 160 µM
Km [11]: 368 µM
Km [12]: 52.0 µM
Km [13]: 23.0 ± 5.1 µM
Km [14]: 139 µM
Km [15]: 281 µM
Km [16]: 100 µM
Km [17]: 19.3 µM
Km [18]: 7.8 µM
